Target: integrin αvβ3 on human tumor cells (ECV304 bladder carcinoma, M21 melanoma) (human, UniProt P06756 31-1048; P05106 27-788)
Test: cell-based or functional assay

Sequence of integrin αvβ3 on human tumor cells (ECV304 bladder carcinoma, M21 melanoma) (P06756 31-1048, chain 1 of 2): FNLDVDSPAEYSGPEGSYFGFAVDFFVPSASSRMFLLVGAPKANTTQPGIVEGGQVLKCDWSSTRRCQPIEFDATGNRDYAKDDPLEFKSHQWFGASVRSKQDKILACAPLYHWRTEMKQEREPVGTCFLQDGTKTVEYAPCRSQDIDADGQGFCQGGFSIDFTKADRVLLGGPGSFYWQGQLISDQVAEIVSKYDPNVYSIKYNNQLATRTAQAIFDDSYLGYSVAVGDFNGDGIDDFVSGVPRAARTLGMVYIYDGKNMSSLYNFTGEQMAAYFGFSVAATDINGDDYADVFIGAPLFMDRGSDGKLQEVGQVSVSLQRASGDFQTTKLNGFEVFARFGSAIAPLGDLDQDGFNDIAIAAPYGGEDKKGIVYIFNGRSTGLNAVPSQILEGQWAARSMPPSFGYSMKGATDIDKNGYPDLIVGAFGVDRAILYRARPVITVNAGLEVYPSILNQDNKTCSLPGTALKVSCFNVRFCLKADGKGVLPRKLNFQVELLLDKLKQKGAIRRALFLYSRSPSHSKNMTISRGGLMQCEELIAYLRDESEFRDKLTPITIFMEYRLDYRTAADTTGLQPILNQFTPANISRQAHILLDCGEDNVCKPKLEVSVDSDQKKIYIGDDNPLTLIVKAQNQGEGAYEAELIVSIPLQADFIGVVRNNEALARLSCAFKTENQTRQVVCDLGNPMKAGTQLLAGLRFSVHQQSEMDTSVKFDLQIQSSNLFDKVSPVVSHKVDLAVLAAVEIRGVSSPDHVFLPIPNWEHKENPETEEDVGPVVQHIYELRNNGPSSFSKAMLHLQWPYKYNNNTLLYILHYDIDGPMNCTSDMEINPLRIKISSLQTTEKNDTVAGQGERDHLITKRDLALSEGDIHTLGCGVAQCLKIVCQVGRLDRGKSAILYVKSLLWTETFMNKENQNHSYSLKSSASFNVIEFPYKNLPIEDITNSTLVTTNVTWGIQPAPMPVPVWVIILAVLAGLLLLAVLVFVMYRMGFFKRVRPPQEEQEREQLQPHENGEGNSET
Sequence of integrin αvβ3 on human tumor cells (ECV304 bladder carcinoma, M21 melanoma) (P05106 27-788, chain 2 of 2): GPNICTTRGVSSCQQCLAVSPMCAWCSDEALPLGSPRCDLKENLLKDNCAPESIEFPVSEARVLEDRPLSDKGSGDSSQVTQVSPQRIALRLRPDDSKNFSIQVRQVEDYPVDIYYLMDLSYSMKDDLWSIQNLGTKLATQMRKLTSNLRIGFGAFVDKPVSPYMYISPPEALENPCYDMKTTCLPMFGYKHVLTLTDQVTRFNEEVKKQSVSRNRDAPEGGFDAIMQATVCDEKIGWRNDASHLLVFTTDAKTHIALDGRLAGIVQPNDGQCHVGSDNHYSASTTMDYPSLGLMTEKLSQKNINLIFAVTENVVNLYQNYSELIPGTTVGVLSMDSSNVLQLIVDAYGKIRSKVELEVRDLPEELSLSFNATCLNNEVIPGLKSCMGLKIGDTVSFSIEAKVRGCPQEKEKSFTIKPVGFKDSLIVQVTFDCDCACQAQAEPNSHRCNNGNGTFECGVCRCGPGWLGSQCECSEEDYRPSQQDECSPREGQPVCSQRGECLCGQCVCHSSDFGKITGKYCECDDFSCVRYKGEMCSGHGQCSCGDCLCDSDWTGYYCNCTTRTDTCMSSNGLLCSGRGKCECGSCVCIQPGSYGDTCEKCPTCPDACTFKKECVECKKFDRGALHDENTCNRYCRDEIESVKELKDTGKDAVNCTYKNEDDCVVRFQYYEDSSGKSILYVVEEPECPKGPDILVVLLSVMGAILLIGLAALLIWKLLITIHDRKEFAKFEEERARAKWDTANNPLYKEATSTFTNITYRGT

relative level of IGFBP-4 RNA (real time PCR) in M21 cells on denatured collagen type-IV: ~8 fold
relative level of TSP-1 RNA (real time PCR) in M21 cells on denatured collagen type-IV: ~8 fold
B1: Mab LM609 (anti-αvβ3) (antibody, V domains shown)
VH: EVQLVESGGGLVKPGRSLRLSCAASGFAFSSYDMSWVRQIPEKRLEWVAKVSSGGGSTYYLDTVQGRFTISRDNAKNTLYLQMSSLNSEDTAMYYCARHNYGSFAYWGQGTLVTVSA
VL: DIVLTQSPATLSVTPGDSVSLSCQASQSISNHLHWYQQKSHESPRLLIKYRSQSISGIPSRFSGSGSGTDFALSINSVETEDFGMYFCQQSGSWPHTFGGGTKLEIK

Source: patent US20060216236A1 (published 2006)
